Values quoted from earlier work in patent US5362858A, “Polyethylene glycol-hirudin conjugates, process for preparing them and their use for the treatment of thromboses” (Transgene S.A., priority 1992, dated 1994).

Details: removal from the bloodstream

hirudin
half-life period: about 1 h
